Results published in patent US20210130436A1 (published 2021).

Columns and labels:
[1] = target: T1, CD28 endogenously expressed on Jurkat/IL2 reporter cells (human, UniProt P10747 19-220); assay: flow cytometry, Jurkat cells (CD28), Fc fusion at 33.3 nM
T1 construct: whole, on cells; Target on Jurkat cells; also called Jurkats (CD28)

[2] = target: T2, human CTLA4 (huCTLA4), full-length, stably expressed on CHO cells (human, UniProt P16410 36-223); assay: flow cytometry, CHO cells expressing huCTLA4
T2 construct: whole, on cells
T2 sequence (P16410 36-223): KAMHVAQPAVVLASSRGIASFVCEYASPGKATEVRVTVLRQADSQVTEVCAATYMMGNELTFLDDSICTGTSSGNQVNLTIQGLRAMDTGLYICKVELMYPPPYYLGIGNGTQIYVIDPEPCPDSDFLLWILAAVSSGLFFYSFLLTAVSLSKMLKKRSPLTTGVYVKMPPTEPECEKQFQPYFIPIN

human PD-L1 [3] = target: T3, human PD-L1 (human, UniProt Q9NZQ7 19-290); assay: flow cytometry MFI relative to WT CD80 IgV-Fc, CHO/huPD-L1 cells, 33.3 nM
T3 construct: whole, on cells; CHO cells stably expressing huPD-L1; also called huPD-L1
T3 sequence (Q9NZQ7 19-290): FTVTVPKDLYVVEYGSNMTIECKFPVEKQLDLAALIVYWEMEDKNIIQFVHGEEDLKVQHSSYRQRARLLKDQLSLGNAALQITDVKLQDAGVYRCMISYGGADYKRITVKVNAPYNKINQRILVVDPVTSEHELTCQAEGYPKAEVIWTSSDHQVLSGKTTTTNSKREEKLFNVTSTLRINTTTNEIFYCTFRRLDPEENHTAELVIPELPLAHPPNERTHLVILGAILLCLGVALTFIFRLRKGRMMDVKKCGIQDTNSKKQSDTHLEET

human CTLA-4 [4] = target: T4, human CTLA-4 (human, UniProt P16410 36-223); assay: flow cytometry MFI relative to WT CD80 IgV-Fc, CHO/huCTLA-4 cells, 33.3 nM
T4 construct: whole, on cells; CHO cells stably expressing huCTLA4; also called huCTLA4
T4 sequence (P16410 36-223): as the sequence (P16410 36-223) above

human CD28 [5] = target: T5, human CD28 (human, UniProt P10747 19-220); assay: flow cytometry MFI relative to WT CD80 IgV-Fc, Jurkat cells (CD28), 33.3 nM
T5 construct: whole, on cells; Jurkat/IL2 reporter cells, which endogenously express CD28

human PD-L1 [6] = target: T3, human PD-L1; assay: flow cytometry, MFI on CHO/huPD-L1 cells divided by MFI on Jurkat cells (CD28), 33.3 nM
human PD-L1 [7] = target: T3, human PD-L1; assay: flow cytometry, CHO cells stably expressing huPD-L1, 33.3 nM Fc fusion, PE anti-human Fc
human CTLA-4 [8] = target: T4, human CTLA-4; assay: flow cytometry, CHO cells stably expressing huCTLA-4, 33.3 nM Fc fusion, PE anti-human Fc
human CD28 [9] = target: T5, human CD28; assay: flow cytometry, Jurkat/IL2 reporter cells (endogenous CD28), 33.3 nM Fc fusion, PE anti-human Fc
[10] = target: T6, human CTLA4 expressed on CHO cells (human, UniProt P16410 36-223); assay: flow cytometry, CHO cells stably expressing CTLA4, Fc fusion at 33.3 nM
T6 construct: whole, on cells; Target on CHO cells stably expressing CTLA4; also called huCTLA4
T6 sequence (P16410 36-223): as above

[11] = target: T7, human PD-L1 expressed on CHO cells (human, UniProt Q9NZQ7 19-290); assay: flow cytometry, CHO cells stably expressing PD-L1, Fc fusion at 33.3 nM
T7 construct: whole, on cells; Target on CHO cells stably expressing PD-L1; also called huPD-L1
T7 sequence (Q9NZQ7 19-290): as the sequence (Q9NZQ7 19-290) above

[12] = target: T8, human PD-L1 (huPD-L1), full-length, stably expressed on CHO cells (human, UniProt Q9NZQ7 19-290); assay: flow cytometry, CHO cells expressing huPD-L1
T8 construct: whole, on cells
T8 sequence (Q9NZQ7 19-290): as above

Binder	MFI at 33.3 nM [1] [MFI]	Fold change to WT CD80 (human PD-L1 [3]) [fold]	Fold change to WT CD80 (human CTLA-4 [4]) [fold]	Fold change to WT CD80 (human CD28 [5]) [fold]	Ratio of PDL1:CD28 (human PD-L1 [6]) [ratio]	MFI at 33.3 nM (human PD-L1 [7]) [MFI]	MFI at 33.3 nM (human CTLA-4 [8]) [MFI]	MFI at 33.3 nM (human CD28 [9]) [MFI]	also measured
WT CD80 ECD-Fc (Abcam) (Fc fusion, UniProt P33681 35-242, looked up, extracellular domain; not shown: Fc of the bought product, not described) VIHVTKEVKEVATLSCGHNVSVEELAQTRIYWQKEKKMVLTMMSGDMNIWPEYKNRTIFDITNNLSIVILALRPSDEGTYECVVLKYEKDAFKREHLAEVTLSVKADFPTPSISDFEIPTSNIRRIICSTSGGFPEPHLSWLENGEELNAINTTVSQDPETELYAVSSKLDFNMTTNHSFMCLIKYGHLRVNQTFNWNTTKQEHFPDN	709								
variant CD80 IgV-Fc E35D/D46E/M47I/T62A/V68M/L85M/Y87C (Fc fusion, not shown: small tags and cut ends; a dimerising Fc or GST) VIHVTKEVKEVATLSCGHNVSVEELAQTRIYWQKDKKMVLTMMSGEINIWPEYKNRTIFDIANNLSIMILALRPSDEGTYECVVMKCEKDAFKREHLAEVTLSVKAD									MFI at 33.3 nM [2]: 17000 MFI
variant CD80 IgV-Fc (inert) H18V/E35D/M47V/V68M/A71G/D90G (Fc fusion, not shown: inert human IgG1 Fc) VIHVTKEVKEVATLSCGVNVSVEELAQTRIYWQKDKKMVLTMMSGDVNIWPEYKNRTIFDITNNLSIMILGLRPSDEGTYECVVLKYEKGAFKREHLAEVTLSVKAD		264	12.1	20.7	20.6	43600	16800	2120	
CD80 E35D/M47V/N48K/V68M/K89N IgV-Fc (Fc fusion, not shown: small tags and cut ends; a dimerising Fc or GST) VIHVTKEVKEVATLSCGHNVSVEELAQTRIYWQKDKKMVLTMMSGDVKIWPEYKNRTIFDITNNLSIMILALRPSDEGTYECVVLKYENDAFKREHLAEVTLSVKAD	1350								MFI at 33.3 nM [10]: 20900 MFI; MFI at 33.3 nM [11]: 14800 MFI
CD80 E35D/M47V/K89N IgV-Fc (Fc fusion, not shown: small tags and cut ends; a dimerising Fc or GST) VIHVTKEVKEVATLSCGHNVSVEELAQTRIYWQKDKKMVLTMMSGDVNIWPEYKNRTIFDITNNLSIVILALRPSDEGTYECVVLKYENDAFKREHLAEVTLSVKAD	507								MFI at 33.3 nM [10]: 39300 MFI; MFI at 33.3 nM [11]: 4340 MFI
variant CD80 IgV-Fc E35D/M47V/V68M/L85M/Y87D (Fc fusion, not shown: small tags and cut ends; a dimerising Fc or GST) VIHVTKEVKEVATLSCGHNVSVEELAQTRIYWQKDKKMVLTMMSGDVNIWPEYKNRTIFDITNNLSIMILALRPSDEGTYECVVMKDEKDAFKREHLAEVTLSVKAD									MFI at 33.3 nM [2]: 13900 MFI; MFI at 33.3 nM [12]: 1720 MFI
CD80 E35D/D46V/M47V/V68M/K89N IgV-Fc (Fc fusion, not shown: small tags and cut ends; a dimerising Fc or GST) VIHVTKEVKEVATLSCGHNVSVEELAQTRIYWQKDKKMVLTMMSGVVNIWPEYKNRTIFDITNNLSIMILALRPSDEGTYECVVLKYENDAFKREHLAEVTLSVKAD	2120								MFI at 33.3 nM [11]: 21600 MFI
variant CD80 IgV-Fc Q33L/E35D/M47V/T62S/V68M/L85M (Fc fusion, not shown: small tags and cut ends; a dimerising Fc or GST) VIHVTKEVKEVATLSCGHNVSVEELAQTRIYWLKDKKMVLTMMSGDVNIWPEYKNRTIFDISNNLSIMILALRPSDEGTYECVVMKYEKDAFKREHLAEVTLSVKAD									MFI at 33.3 nM [2]: 86 MFI
variant CD80 IgV-Fc E35D/D46E/M47V/V68M/L85Q (Fc fusion, not shown: small tags and cut ends; a dimerising Fc or GST) VIHVTKEVKEVATLSCGHNVSVEELAQTRIYWQKDKKMVLTMMSGEVNIWPEYKNRTIFDITNNLSIMILALRPSDEGTYECVVQKYEKDAFKREHLAEVTLSVKAD									MFI at 33.3 nM [2]: 15500 MFI; MFI at 33.3 nM [12]: 1720 MFI
CD80 N48K/K89N IgV-Fc (Fc fusion, not shown: small tags and cut ends; a dimerising Fc or GST) VIHVTKEVKEVATLSCGHNVSVEELAQTRIYWQKEKKMVLTMMSGDMKIWPEYKNRTIFDITNNLSIVILALRPSDEGTYECVVLKYENDAFKREHLAEVTLSVKAD	170								MFI at 33.3 nM [10]: 4370 MFI
CD80 E35D/N48K/V68M IgV-Fc (Fc fusion, not shown: small tags and cut ends; a dimerising Fc or GST) VIHVTKEVKEVATLSCGHNVSVEELAQTRIYWQKDKKMVLTMMSGDMKIWPEYKNRTIFDITNNLSIMILALRPSDEGTYECVVLKYEKDAFKREHLAEVTLSVKAD	642								MFI at 33.3 nM [10]: 33600 MFI
variant CD80 IgV-Fc (inert) H18C/A26P/E35D/M47L/V68M/A71G (Fc fusion, not shown: inert human IgG1 Fc) VIHVTKEVKEVATLSCGCNVSVEELPQTRIYWQKDKKMVLTMMSGDLNIWPEYKNRTIFDITNNLSIMILGLRPSDEGTYECVVLKYEKDAFKREHLAEVTLSVKAD		406	16.9	18.7	35.2	67000	23400	1910	
CD80 E35D/N48K/V68M/K89N IgV-Fc (Fc fusion, not shown: small tags and cut ends; a dimerising Fc or GST) VIHVTKEVKEVATLSCGHNVSVEELAQTRIYWQKDKKMVLTMMSGDMKIWPEYKNRTIFDITNNLSIMILALRPSDEGTYECVVLKYENDAFKREHLAEVTLSVKAD	1530								MFI at 33.3 nM [11]: 17400 MFI
CD80 M47V/V68M/K89N IgV-Fc (Fc fusion, not shown: small tags and cut ends; a dimerising Fc or GST) VIHVTKEVKEVATLSCGHNVSVEELAQTRIYWQKEKKMVLTMMSGDVNIWPEYKNRTIFDITNNLSIMILALRPSDEGTYECVVLKYENDAFKREHLAEVTLSVKAD	1320								MFI at 33.3 nM [10]: 24800 MFI; MFI at 33.3 nM [11]: 11800 MFI
variant CD80 IgV-Fc R29C/E35D/M47L/V68M/A71G/L85M (Fc fusion, not shown: small tags and cut ends; a dimerising Fc or GST) VIHVTKEVKEVATLSCGHNVSVEELAQTCIYWQKDKKMVLTMMSGDLNIWPEYKNRTIFDITNNLSIMILGLRPSDEGTYECVVMKYEKDAFKREHLAEVTLSVKAD									MFI at 33.3 nM [2]: 91 MFI

The next lines start with results.

MFI at 33.3 nM [1] [MFI]	Fold change to WT CD80 (human PD-L1 [3]) [fold]	Fold change to WT CD80 (human CTLA-4 [4]) [fold]	Fold change to WT CD80 (human CD28 [5]) [fold]	Ratio of PDL1:CD28 (human PD-L1 [6]) [ratio]	MFI at 33.3 nM (human PD-L1 [7]) [MFI]	MFI at 33.3 nM (human CTLA-4 [8]) [MFI]	MFI at 33.3 nM (human CD28 [9]) [MFI]	Binder	also measured
	167	12.4	59.1	4.6	27500	17200	6030	variant CD80 IgV-Fc (inert) H18F/A26D/E35D/D46E/M47T/V68M/A71G/D90G (Fc fusion, not shown: inert human IgG1 Fc) VIHVTKEVKEVATLSCGFNVSVEELDQTRIYWQKDKKMVLTMMSGETNIWPEYKNRTIFDITNNLSIMILGLRPSDEGTYECVVLKYEKGAFKREHLAEVTLSVKAD	
	412	12.3	71.1	9.4	68000	17000	7250	variant CD80 IgV-Fc (inert) H18L/A26N/D46E/V68M/A71G/D90G (Fc fusion, not shown: inert human IgG1 Fc) VIHVTKEVKEVATLSCGLNVSVEELNQTRIYWQKEKKMVLTMMSGEMNIWPEYKNRTIFDITNNLSIMILGLRPSDEGTYECVVLKYEKGAFKREHLAEVTLSVKAD	
	415	15.1	13.4	50.1	68500	20900	1370	variant CD80 IgV-Fc (inert) H18T/A26N/E35D/M47L/V68M/A71G (Fc fusion, not shown: inert human IgG1 Fc) VIHVTKEVKEVATLSCGTNVSVEELNQTRIYWQKDKKMVLTMMSGDLNIWPEYKNRTIFDITNNLSIMILGLRPSDEGTYECVVLKYEKDAFKREHLAEVTLSVKAD	
	136	11	31.1	7.1	22400	15200	3170	variant CD80 IgV-Fc (inert) H18F/A26N/E35D/M47V/V68M/A71G/D90K (Fc fusion, not shown: inert human IgG1 Fc) VIHVTKEVKEVATLSCGFNVSVEELNQTRIYWQKDKKMVLTMMSGDVNIWPEYKNRTIFDITNNLSIMILGLRPSDEGTYECVVLKYEKKAFKREHLAEVTLSVKAD	
	392	14.7	62.2	10.2	64800	20300	6350	variant CD80 IgV-Fc (inert) H18L/E35D/M47V/V68M/A71G/D90G (Fc fusion, not shown: inert human IgG1 Fc) VIHVTKEVKEVATLSCGLNVSVEELAQTRIYWQKDKKMVLTMMSGDVNIWPEYKNRTIFDITNNLSIMILGLRPSDEGTYECVVLKYEKGAFKREHLAEVTLSVKAD	
	393	15.8	25.2	25.2	64900	21900	2570	variant CD80 IgV-Fc (inert) H18I/A26P/E35D/M47V/V68M/A71G (Fc fusion, not shown: inert human IgG1 Fc) VIHVTKEVKEVATLSCGINVSVEELPQTRIYWQKDKKMVLTMMSGDVNIWPEYKNRTIFDITNNLSIMILGLRPSDEGTYECVVLKYEKDAFKREHLAEVTLSVKAD	
